± gives the uncertainty stated by the source.
Experiment: self-splicing fitness, log relative to wild type (ln ratio); higher = more splicing; Tetrahymena group I intron in knt gene, E. coli kanamycin selection, DiMSum; sequences stand for … in CUCUCU…GGAGGGAAAAGUUAUCAGGCAUGCACCUGGUAGCUAGUCUUUAAACCAAUAGAUUGCAUCGGUUUAAAAGGCAAGACCGUCAAAUUGCGGGAAAGGGGUCAACAGCCGUUCAGUACCAAGUCUCAGGGGAAACUUUGAGAUGGCCUUGCAAAGGGUAUGGUAAUAAGCUGACGGACAUGGUCCUAACCACGCAGCCAAGUCCUAAGUCAACAGAUCUUCUGUUGAUAUGGAUGCAGUUCACAGACUAAAUGUCGGUCGGGGAAGAUGUAUUCUUCUCAUAAGAUAUAGUCGGACCUCUCCUUAAUGGGAGCUAGCGGAUGAAGUGAUGCAACACUGGAGCCGCUGGGAACUAAUUUGUAUGCGAAAGUAUAUUGAUUAGUUUUGGAGUACUCGUGGUCG
Method in brief: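 A randomised library covering all eight P1ex-region intron nucleotides was built with the intron in the knt kanamycin-resistance gene on pET-22b(+) and held in E. coli BL21(DE3). Cells were grown overnight at 37°C or 30°C on LB agar, with or without 25 μg/mL kanamycin, plus 100 μg/mL carbenicillin, 50 μM IPTG and 0.2% rhamnose, and pooled colonies were amplicon-sequenced on an Illumina HiSeq 2500. DiMSum fitness is the error-weighted combination of wild-type-normalised replicate fold changes, kanamycin versus none.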

Sequence	self-splicing fitness (ln) (30 °C)	self-splicing fitness (ln) (37 °C)
CGAAAGCAAUAUUACGAGCU	-2.9 ± 0.12	-1.59 ± 0.13
CGAAAGCAAUAUUACGAGUC	-2.98 ± 0.18	-2.22 ± 0.35
CGAAAGCAAUAUUACGAGUG	-0.203 ± 0.049	0.0139 ± 0.065
CGAAAGCAAUAUUACGAUCA	-0.312 ± 0.1	0.699 ± 0.13
CGAAAGCAAUAUUACGAUUA	-1.48 ± 0.11	-1.06 ± 0.13
CGAAAGCAAUAUUACGCCAC	-2.32 ± 0.37	–
CGAAAGCAAUAUUACGCCAU	-3.31 ± 0.45	-2.78 ± 0.43
CGAAAGCAAUAUUACGCCCA	-0.283 ± 0.12	0.0973 ± 0.15
CGAAAGCAAUAUUACGCCCU	-0.989 ± 0.15	0.0487 ± 0.19
CGAAAGCAAUAUUACGCUGU	-3.2 ± 0.25	-2.75 ± 0.33
CGAAAGCAAUAUUACGCUUA	-2.25 ± 0.16	-1.24 ± 0.14
CGAAAGCAAUAUUACGGACA	-0.806 ± 0.074	0.186 ± 0.091
CGAAAGCAAUAUUACGGAGA	-2.59 ± 0.29	-1.58 ± 0.37
CGAAAGCAAUAUUACGGCUC	-2.88 ± 0.18	-1.73 ± 0.21
CGAAAGCAAUAUUACGGGCC	-3.07 ± 0.23	-3.07 ± 0.21
CGAAAGCAAUAUUACGGUUC	-3.34 ± 0.16	-2.33 ± 0.17
CGAAAGCAAUAUUACGGUUU	-2.51 ± 0.095	-1.51 ± 0.11
CGAAAGCAAUAUUACGUGAC	-3.45 ± 0.12	-2.22 ± 0.13
CGAAAGCAAUAUUACGUGGC	-0.949 ± 0.12	-3.21 ± 0.32

Sequence	self-splicing fitness (ln) (30 °C)	self-splicing fitness (ln) (37 °C)
CGACAGCAAUAUUACGAAGC	-2.91 ± 0.24	-3.43 ± 0.35
CGACAGCAAUAUUACGACAG	-0.3 ± 0.069	0.0609 ± 0.084
CGACAGCAAUAUUACGAGAC	-4.34 ± 0.3	-2.57 ± 0.26
CGACAGCAAUAUUACGAGAG	-3.42 ± 0.12	-1.95 ± 0.11
CGACAGCAAUAUUACGAUCA	-0.455 ± 0.07	0.458 ± 0.096
CGACAGCAAUAUUACGCGGA	-2.18 ± 0.12	-1.9 ± 0.089
CGACAGCAAUAUUACGCGGC	-3.55 ± 0.16	-2.96 ± 0.26
CGACAGCAAUAUUACGCUGC	-3.02 ± 0.25	-2.24 ± 0.26
CGACAGCAAUAUUACGGGUA	-4.49 ± 0.28	-1.49 ± 0.12
CGACAGCAAUAUUACGGGUG	-0.537 ± 0.043	0.0253 ± 0.063
CGACAGCAAUAUUACGGUAC	-4.52 ± 0.36	-2.09 ± 0.2
CGACAGCAAUAUUACGUGUG	-2.2 ± 0.067	-1.1 ± 0.07
CGAGAGCAAUAUUACGAAAU	-2.81 ± 0.24	-2.97 ± 0.37
CGAGAGCAAUAUUACGAGGC	-1.83 ± 0.24	-0.565 ± 0.48
CGAGAGCAAUAUUACGAGUU	-3.56 ± 0.34	-2.18 ± 0.34
CGAGAGCAAUAUUACGGAAU	-3.06 ± 0.19	-3.23 ± 0.42
CGAGAGCAAUAUUACGGCAC	-3.72 ± 0.3	-2.36 ± 0.23
CGAGAGCAAUAUUACGGGAC	-3.92 ± 0.18	-1.87 ± 0.16
CGAGAGCAAUAUUACGGGCA	-3.47 ± 0.28	-2.53 ± 0.44

Source: the supplement of paper PMC7877785
